Results reported in patent US20060204957A1, “Mta1s, a steriod hormone receptor corepressor” (priority 2002, published 2006).

Experiments:
ER [1] = assay: ERE promoter-reporter assay, estradiol-stimulated, MCF-7 cells; assay type: cell-based, human; conditions: transient expression in MCF-7 cells
Description: (§1) Transfection was performed using a Fugene-6 kit (Roche Biochemical, New Jersey) as per the manufacturer's instructions. Cells were transiently cotransfected with a reporter construct and (β-galactosidase, and assayed for luciferase activity as described.
Since MTA1 is a corepressor of ER (Mazumdar, et al., 2001, incorporated herein by reference), the ability of MTA1 cDNAs to repress the transactivating function of ER were investigated.

breast cancer cells = assay: Tumorigenesis (xenograft) assay in nude mice; assay type: in vivo; conditions: MTA1s expressing cells implanted subcutaneously, 21 days
From the text: (§2) FIGS. 11A-11E. MTA1s may stimulate aggressive phenotypes in breast cancer cells. FIG. 11A illustrates an example of MTA1s overexpression inhibiting PRE-driven but not RARE-driven transcription. FIG. […] illustrates the Growth-rate of ZR/pcDNA or ZR/MTA1s cells in monolayer culture in the presence of E2 alone or with ICI 182780 (10^−9 M for 4 days). FIG. 11C show an exemplary effect of MTA1s expression on anchorage independent growth of ZR/pcDNA and ZR/MTA1s cells grown in 10% serum in the presence or absence of ICI 182780 (10^−9 M) or 4HT (10^−8 M) for 14 days. […] FIG. 11E illustrates that MTA1s may induce tumorigenesis of breast cancer cells. 5×10^6 cells were subcutaneously inoculated in the athymic nude mice (n=10), and tumor volumes at day 21 were recorded.
(§3) Soft agar colony growth assays were performed as described in Mazumdar et al., 2001, herein incorporated by reference. For xenografts studies, 5×10^6 cells were implanted subcutaneously into mammary fat-pad of nude mice and allowed to grow for 21 days and tumor size was measured, as described in Mandal et al., 2001, herein incorporated by reference.

[2] = system: glucocortocoid responsive element (GRE) transcription; assay: GRE reporter assay, dexamethasone-stimulated, MCF-7 cells; assay type: cell-based, human; conditions: transient expression
Description: (§4) FIGS. 6A-6B. Typical transcriptional repression by MTA1s. FIG. 6A illustrates an example of repression of dexamethasone (10^−9 M)-mediated stimulation of GRE-CAT activity in MCF-7 cells by MTA1s. FIG. 6B illustrates the exemplary repression of progesterone (10^−9 M)-mediated stimulation of PRE-luciferase activity in MCF-7 cells by MTA1s. Cells were cotransfected with β-galactosidase to assess transfection efficiency, and normalized results are presented here.
as §1

ER [3] = assay: GST pull-down assay; assay type: binding; conditions: in vitro translated protein, GST fusion
Description: Incubating equal amounts of GST […] GST-AF2 or GST-AF 1 proteins immobilized to glutathione-sepharose beads with in vitro translated ^35S-labelled MTA1s, protein as described.
Since MTA1s lacked the nuclear signal sequence, the subcellular localization and function of MTA1s was examined. […] The role of MTA1s, in breast cancer cells, was investigated by generating stable clones of ZR-75R cells expressing T7-MTA1s (FIG. 3B). Subcellular fractionation of the ZR-75R cells expressing MTA1s confirmed that T7-MTA1s was in the cytoplasm. To assess the purity of the fractions, immunoblotting with antibodies against the nuclear corepressor PELP1 (Vadlamudi, et al., 2000) and cytosolic paxillin (FIG. 3C) were used. To understand the impact of MTA1s on the status of ER, immunostaining with an anti-ER mAb were used on MCF-7 cells that were transfected with the T7-MTA1s. The expression of T7-MTA1s was accompanied by a significant reduction in the nuclear ER immunoreactivity (FIG. 3D), raising the possibility that MTA1s regulates ER. To confirm the interaction between the MTA1s and endogenous ER, immunoprecipitation of T7-MTA1s with an anti-T7 mAb was used. […] To investigate whether the association between MTA1s and ER was direct or mediated by other proteins, the ability of in vitro-translated ER protein to bind with GST-MTA1s was investigated. […]
Target sequence in this assay (P03372 311-595 limits assumed): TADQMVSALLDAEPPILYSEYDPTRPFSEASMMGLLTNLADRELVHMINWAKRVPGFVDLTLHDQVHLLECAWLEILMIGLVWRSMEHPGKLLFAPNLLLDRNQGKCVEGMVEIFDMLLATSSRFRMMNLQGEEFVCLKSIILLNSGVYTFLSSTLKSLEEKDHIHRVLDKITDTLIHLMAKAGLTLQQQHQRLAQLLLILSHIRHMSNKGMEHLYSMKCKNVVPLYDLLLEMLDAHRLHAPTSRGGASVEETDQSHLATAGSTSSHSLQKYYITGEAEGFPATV

[4] = system: pS2, c-Myc and cathepsin-D; assay: Expression of ER-target genes in ZR-75R cells; assay type: cell-based, human; conditions: ZR-75R/MTA1s cells
Description: FIGS. 5A-5F. MTA1s may impair genomic responses and upregulates the MAP kinase pathway in ZR75R breast cancer cells. […] FIG. 5B illustrates an example of the status of E2 (10^−9 M for 16 h)-induced stimulation of pS2 mRNA. […] Treatment, 5 min. with E2 (10^−9 M) or ICI 182780 (10^−8 M) or both. […] Treatment, 5 min with E2 (10^−9 M) or ICI 182780 (10^−8 M) or both. Relative levels of p42/44Phos are shown underneath.

[5] = system: progesterone responsive element (PRE) transcription; assay: PRE reporter assay, progesterone-stimulated, MCF-7 cells; assay type: cell-based, human; conditions: transient expression
Description: as §4, §1

ZR-75R or MCF-7 cells = assay: Soft-agar anchorage-independent growth assay; assay type: cell-based, human; conditions: stable expression in ZR-75R or MCF-7 cells
From the text: as §2, §3

ERα = biological target: T1, ERα (Homo sapiens, UniProt P03372); assay: Confocal localization of ERα in estradiol-stimulated MCF-7 cells; assay type: cell-based; conditions: estradiol stimulated MCF-7 cells expressing the construct
T1 construct: endogenous in cells; host or cells: MCF-7 cells transfected with T7-MTA1s or MTA1s-del
Description: The cellular localization of T7-MTA1s, and ER was determined using indirect immunofluorescence as described in Mazumdar et al., 2001, herein incorporated by reference. Cells were treated with or without anti-T7 mAb or ER Ab followed by 546-Alexa-labeled goat anti-mouse Ab or 488-Alexa.
Expression of MTA1s-del but not wild type MTA1s was accompanied by the presence of ERα in the nucleus in more than 90% of the cell expressing MTA1s-del. Together, these findings indicated a pivotal role of LRILL motif in the cytoplasmic sequestration of ERα.

T1 sequence (P03372 whole entry): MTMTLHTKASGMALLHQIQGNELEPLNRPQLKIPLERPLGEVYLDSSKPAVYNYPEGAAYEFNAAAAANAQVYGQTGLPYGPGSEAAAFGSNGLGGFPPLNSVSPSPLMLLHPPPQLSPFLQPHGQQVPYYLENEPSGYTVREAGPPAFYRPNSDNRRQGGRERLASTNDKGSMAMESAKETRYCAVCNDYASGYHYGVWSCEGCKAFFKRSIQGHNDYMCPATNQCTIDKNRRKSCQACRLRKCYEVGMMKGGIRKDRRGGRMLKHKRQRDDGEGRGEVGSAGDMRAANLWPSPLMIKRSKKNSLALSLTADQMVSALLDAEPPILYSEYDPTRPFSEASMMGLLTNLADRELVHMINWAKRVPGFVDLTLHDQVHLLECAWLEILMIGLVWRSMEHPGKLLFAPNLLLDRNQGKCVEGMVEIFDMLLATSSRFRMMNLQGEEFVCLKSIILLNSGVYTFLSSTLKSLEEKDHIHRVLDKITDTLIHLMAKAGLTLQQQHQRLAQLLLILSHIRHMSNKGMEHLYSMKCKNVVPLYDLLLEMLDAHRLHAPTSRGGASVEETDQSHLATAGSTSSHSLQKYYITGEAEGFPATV

B1: MTA1s-stop: MTA1s mutant made by adding a stop codon and deleting the entire 33 amino acids (protein)
chain: MAANMYRVGDYVYFENSSSNPYLIRRIEELNKTANGNVEAKVVCFYRRRDISSTLIALADKHATLSVCYKAGPGADNGEEGEIEEEMENPEMVDLPEKLKHQLRHRELFLSRQLESLPATHIRGKCSVTLLNETESLKSYLEREDFFFYSLVYDPQQKTLLADKGEIRVGNRYQADITDLLKEGEEDGRDQSRLETQVWEAHNPLTDKQIDQFLVVARSVGTFARALDCSSSVRQPSLHMSAAAASRDITLFHAMDTLHKNIYDISKAISALVPQGGPVLCRDEMEEWSASEANLFEEALEKYGKDFTDIQQDFLPWKSLTSIIEYYYMWKTTDRYVQQKRLKAAEAESKLKQVYIPNYNKPNPNQISVNNVKAGVVNGTGAPGQSPGAGRACESCY
repression of estradiol's ability to stimulate ERE transcription (ER [1]): did not result in a significant suppression

B2: full-length MTA1: 715 amino acid metastasis-associated protein, corepressor of nuclear Estrogen Receptor α (protein, UniProt Q13330 1-715, looked up)
chain: MAANMYRVGDYVYFENSSSNPYLIRRIEELNKTANGNVEAKVVCFYRRRDISSTLIALADKHATLSVCYKAGPGADNGEEGEIEEEMENPEMVDLPEKLKHQLRHRELFLSRQLESLPATHIRGKCSVTLLNETESLKSYLEREDFFFYSLVYDPQQKTLLADKGEIRVGNRYQADITDLLKEGEEDGRDQSRLETQVWEAHNPLTDKQIDQFLVVARSVGTFARALDCSSSVRQPSLHMSAAAASRDITLFHAMDTLHKNIYDISKAISALVPQGGPVLCRDEMEEWSASEANLFEEALEKYGKDFTDIQQDFLPWKSLTSIIEYYYMWKTTDRYVQQKRLKAAEAESKLKQVYIPNYNKPNPNQISVNNVKAGVVNGTGAPGQSPGAGRACESCYTTQSYQWYSWGPPNMQCRLCASCWTYWKKYGGLKMPTRLDGERPGPNRSNMSPHGLPARSSGSPKFAMKTRQAFYLHTTKLTRIARRLCREILRPWHAARHPYLPINSAAIKAECTARLPEASQSPLVLKQAVRKPLEAVLRYLETHPRPPKPDPVKSVSSVLSSLTPAKVAPVINNGSPTILGKRSYEQHNGVDGNMKKRLLMPSRGLANHGQARHMGPSRNLLLNGKSYPTKVRLIRGGSLPPVKRRRMNWIDAPDDVFYMATEETRKIRKLLSSSETKRAARRPYKPIALRQSQALPPRPPPPAPVNDEPIVIED
modifications: full-length
notes: 715 amino acid metastasis-associated protein, corepressor of nuclear Estrogen Receptor α
repression of estradiol's ability to stimulate ERE transcription (ER [1]): effectively blocked

B3: MTA1s: novel 430 amino acid protein from an alternatively spliced MTA1 transcript, with unique 33 amino acid C-terminus (SEQ ID NO:2) (protein, listed as Homo sapiens)
chain: MAANMYRVGDYVYFENSSSNPYLIRRIEELNKTANGNVEAKVVCFYRRRDISSTLIALADKHATLSVCYKAGPGADNGEEGEIEEEMENPEMVDLPEKLKHQLRHRELFLSRQLESLPATHIRGKCSVTLLNETESLKSYLEREDFFFYSLVYDPQQKTLLADKGEIRVGNRYQADITDLLKEGEEDGRDQSRLETQVWEAHNPLTDKQIDQFLVVARSVGTFARALDCSSSVRQPSLHMSAAAASRDITLFHAMDTLHKNIYDISKAISALVPQGGPVLCRDEMEEWSASEANLFEEALEKYGKDFTDIQQDFLPWKSLTSIIEYYYMWKTTDRYVQQKRLKAAEAESKLKQVYIPNYNKPNPNQISVNNVKAGVVNGTGAPGQSPGAGRACESCYMSSLRILLDILEEIWWLENANPVRWREARTKPQ
tumorigenicity in nude mice (breast cancer cells): more tumorigenic | repression of GRE transcription stimulated by dexamethasone [2]: blocked the stimulation | binding to ER in GST pull-down (ER [3]): interacted with the GST-ER but not with GST alone | repression of estradiol's ability to stimulate ERE transcription (ER [1]): effectively blocked | expression of ER-target genes pS2, c-Myc and cathepsin-D [4]: significantly reduced expression | repression of PRE transcription stimulated by progesterone [5]: blocked the stimulation | anchorage-independent growth in soft agar (ZR-75R or MCF-7 cells): significantly enhanced

B4: MTA1s-del: MTA1s mutant made by deleting the LRILL motif (protein)
chain: MAANMYRVGDYVYFENSSSNPYLIRRIEELNKTANGNVEAKVVCFYRRRDISSTLIALADKHATLSVCYKAGPGADNGEEGEIEEEMENPEMVDLPEKLKHQLRHRELFLSRQLESLPATHIRGKCSVTLLNETESLKSYLEREDFFFYSLVYDPQQKTLLADKGEIRVGNRYQADITDLLKEGEEDGRDQSRLETQVWEAHNPLTDKQIDQFLVVARSVGTFARALDCSSSVRQPSLHMSAAAASRDITLFHAMDTLHKNIYDISKAISALVPQGGPVLCRDEMEEWSASEANLFEEALEKYGKDFTDIQQDFLPWKSLTSIIEYYYMWKTTDRYVQQKRLKAAEAESKLKQVYIPNYNKPNPNQISVNNVKAGVVNGTGAPGQSPGAGRACESCYMSSDILEEIWWLENANPVRWREARTKPQ
repression of estradiol's ability to stimulate ERE transcription (ER [1]): did not result in a significant suppression | cells with ERα present in the nucleus (ERα): more than 90%
